Data from the DeepSol protein solubility set.

Assay: soluble on expression in E. coli; label from the status in PepcDB or PDB records

Row | Sequence | soluble on expression in E. coli
1 | MPKVAILIYSVDDIIATLAENEKKGIEIAGGEAEIFQVPDVSYKTEYATEEGKEAAKVAKTNADFSYKILTRETLVEYDYYLFGIPTKFGNFPAEWKSFWDSNTGGLWAKGSLHGKIAGLFVSGAISGKGDTEMCIMNAMSTLVHHGVIYVPLGYKNAYKELTDVEDVNGSCAWGAGCVSGIDGGRPPSLSELRVHQLQGKAFYDRIKDL | not soluble
2 | MRNVMKATTLESKFPLLAVENGCIVSKEADVTVAFRVELPELFSVTGSEYEAVHSAWHKAVKVLPEYSIVHKQDFFIEEKYRPETDRDDLSFLSRSFERHFNERPFLNHFCYLFLTKTTKARSRQESTFSTLCKGRLVPKEIEDRETVTRFLEAVGQFEKIMNDSGFVTLRRLTTDEITGTETAAGIVEKYLSLSQHDTTVLKDIQLNPEEMRIGDDILCLHTLSDTEDLPGKVATDSRYERLSTDRSDCRLSFAAPVGLLLDCNHCYNQYIFIDDHGENLKRFEQTARNMHSLSRYSRSNQINKAWIEEYLNEAHSKGLTSVRCHCNVMAWSDDREELRRIKNEVGSQLALMECKPRHNTVDVPTLFWAAIPGNEGDFPFEESFYTFIPQALCFFTEETNYKDSLSPFGIKMADRMTGRPLHLDISDLPMKKGVISNRNKFVLGPSGSGKSFFMNHLVRQYYEQNSHIVLIDTGNSYQGLCELIHRKTKGEDGIYYTYTEEKPISFNPFFTDDYKFSVEKKDSIKTLLLALWKGEDEKVTKTESGELGSAVSAYIRRIQQNRDIAPSFDTFYEYMLNDYRKELAARDIKVSREDFNIDNFLTTLRQYYKGGRYDFLLNSNENIDLLHKRFIVFEIDAVKDNAELFPVVTIIIMEAFINKLRRLKGVRKMLICEEAWKALSSPSMSEYLKYLYKTVRKYFGEAIVVTQEVDDIISSPIVKEAIITNSDCKILLDQKKYMNKFDGIQSMLGLTDKEKSQILSINLANHPGRKYKEVWIGLNGVQSAVYATEVSAAEYLTYTTEESEKTEVFALAEELGGDLELAIKRLAETKYK | not soluble
3 | MRALLFTSVVLLALAFVEAKKQTITVKGTTICNKKRIQAEVTLWEKDTLDPDDKLASMQSNKEGEFSLTGSDDEITSISPYLIITHNCNVKKAGCKRVSEYLIPKEKIGGTYDMTYVTLDILSAKDKEKC | not soluble
4 | MDHFIKLLPKLTPHLRKGDCGKMGVIGGSLEYTGAPYFAASSASRLGADLIHIFCDPDAAQVIKGYSPDLIVHPGMTANSIIPKLSRMDAIVIGPGLGRNPNIWPLMQELFEFVRNRDVPFVIDGDGLWFVSEHIEKFPRQMSATVLTPNIVEFSRLCKSALGEEDVLNVRNNSQLQHLAAELSRKMNVTIYLKGEVDLVVTPNGEVSKCSTESSLRRCGGQGDVTAGSLGLFLYWAKKNLGDDWTSAHHEAGIASSWLVRTAGRRAFEKHGRSMNTPLLLDEIPKLVRDVETREMKDTVHTDSSKH | not soluble
5 | MTTFERIKKLSAKKGITISQLTSELEMGENSIYRWKTQKPALDKLQKVADYFNVSIDYLLGRTDNPQIDSDIPPEATTLAAHIDPAATEEDMKKILEYIDFIQQKYK | not soluble
6 | MGSDKIHHHHHHMSEAKMAESDGLRVLIDEPFYQPVANEVRVFLAAWDRRLPVMLKGPTGCGKTRFLEHMAWRLKRPLVTVACHEDLTSSDLIGRFLIEGNETVWQDGPLTRAVREGAICYLDEIVEARTDTTVVIHPLTDHRRHLPIEKLGIEITAHRDFMLVISYNPGYQTVLKDLKPSTKQRFVGMNFNYPPADVETCIVMKEAGVDEGRAKALVAAAGKARNLKEQGLQEVTSTRALIYAGALMVAGLDALEACVVAIIHPQTDDPELAEALLEIFRTFFPEQG | not soluble
7 | MFNYERPKHFIQSQNPCGSRLQPPGPETSSFSSQTKQSSIIIQPRQCTEQRFSASSTLSSHITMSSSAFPASPQQHAGSNPGQRVTTTYNQSPASFLSSILPSQPDYNSSKIPSAMDSNYQQSSAGQPINAKPSQTANAKPIPRTPDHEIQGSKEALIQDLERKLKCKDTLLHNGNQRLTYEEKMARRLLGPQNAAAVFQAQDDSGAQDSQQHNSEHARLQVPTSQVRSRSTSRGDVNDQDAIQEKFYPPRFIQVPENMSIDEGRFCRMDFKVSGLPAPDVSWYLNGRTVQSDDLHKMIVSEKGLHSLIFEVVRASDAGAYACVAKNRAGEATFTVQLDVLAKEHKRAPMFIYKPQSKKVLEGDSVKLECQISAIPPPKLFWKRNNEMVQFNTDRISLYQDNTGRVTLLIKDVNKKDAGWYTVSAVNEAGVTTCNTRLDVTARPNQTLPAPKQLRVRPTFSKYLALNGKGLNVKQAFNPEGEFQRLAAQSGLYESEEL | soluble
8 | ASMTGGQQMGRGSDSKPPYSYAQLIVQAITMAPDKQLTLNGIYTHITKNYPYYRTADKGWQNSIRHNLSLNRYFIKVPRSQEEPGKGSFWRIDPASESKLIEQAFRKRRPR | soluble
9 | MKRAPFLCKQSPDRTLEVVILAGSLAWETSRVWRKDPDREDDVPPMVLGPNELADLSNLTIIRPDTLYVRVLRTGDISEEDLLKIAVKLAHAGVQMARLMSPDGELLENWTGQLERLRQERPSDILPDHFRLDEEALWFDKLTERRDGESDVQPQRICSPLRVTAITCDSHDGSYGRLLEWHTTTGQLRRWAMPMAMLSGNGEELRRILLENGLTNISTRPALRSLLCEYISRSLPGRRVTCVEKTGWHNGVYVLPDEVIGPDGDNVILQGSHYLTGGFAQAGTLAEWQEQVAALCAGNSRLVFAVCCALAAPLLRLTGTGGGGFHLRGESTDGKTTVMKVAASVCGGTDYWHSWRATGNALEGIASRHNDALLPLDELREVDPREAGMIAYMLANGQGKGRARTDGEVRNRRHWTLLLEHHHHHH | not soluble
10 | MGSDKIHHHHHHMPFAKEKGQPAIYYETIGKGTPIIFIPPPGVGHLTFRYQVPLMNQCKLITFDVRGDCQSERSTEPMTMTQLAYDVKRVLDANCVRKAIVCGYSNGAAIAQEFALTYPERTAGVILIGGYFAVKNFLLEKEYKLGIWAARNELMPLLASGLAKNHFTDKQAANELYAEIMKTDPQMLADQYTTGLHYSSEDRLHQLRVPLLLIYGANDHYLQPYQTRFRELVHDVEIVYIQGVKHQVPSKAPHECNAVLREWMRRKQFIPS | not soluble
11 | MQEEVNQKVISLSIQGVKITASVLKAALRKFLEMDNRRKQKATQVKMAEKTGRAQEKGREKARKKIEKKKPHGKQTIKQLNAQGVQLSNLKITDENVKSFDRVARKYGIDYSLKKEVGADPPKYLVFFKAKDVDVMTAAFREYAGVELKKKQVKKPSVRKKLQKSVERKAKNRQRVKQRQKSRGQER | not soluble
12 | MSLARPLSFHEDRLFPSDPATRSYARGLYALVKDLPIISPHGHTDPSWFATNAPFQDATDLLLAPDHYLFRMLYSQGVSLDALKVRSKAGVPDTDPREAWRVFASHFYLFRGTPSWVWLNHVFSQVFGFTEFLEASNADDYFDRITAALATDAFRPRALFDRFNIETLATTEGPHESLQHHAAIRESGWGGHVITAYRPDAVIDFEDERSPRAFERFAETSGQDVYSWKSYLEAHRLRRQAFIDAGATSSDHGHPTAATADLSDVEAEALFNSLVKGDVTPEKAELFRAQMLTEMAKMSLDDGLVMQIHPGSHRNHNVGLLNSHGRDKGADIPMRTEYVDALKPLLTRLGNDPRLSIILFTLDETTYSRELAPLAGHYPVLKLGPSWWFHDSPEGMMRFREQVTETAGFYNTVGFNDDTRAFLSIPARHDVARRVDSAFLARMVAEHRMDLVEAEELIVDLTYNLPKKAYKLDQRPDWARPATLRAAAEEGHHHHHH | soluble
13 | SLQKQEKIIEMFNQIAPTYDKANRILSFGADVAWRKKACQRVMSLYLKKDLKIADIACGTGDMIEIWQESALKMEKNILNIKGIDPSSGMLNVAKEKFPNVEFIKAGAQNLPLESQSLDILSISYGIRNVVERQKALSEFARVLQKDGILVVLEFTKREKGGFIAACRDFYLKNILPSIGGIISKNKSAYEYLPNSIEGFLSKKEFILELKNAGFEMLDYKSFSFGVSSMFIAKKL | soluble
14 | MKLNFSLYRYNPDVDNKPYMKDYILEVEEGSDMMVLDALILLKEQDPSIAFRRSCREGVCGSDGLNMNGKNGLACITPLSALKGDKIVIRPLPGLPVVRDLIVDMTQFYDNYAKVKPFLIADDALPPSRENLQSPEERAHLDGLYECIMCACCTTSCPSFWWNPDKFIGPAGLLAAYRWLIDSRDTATDERLSNLDDAFSVFRCHGIMNCVSVCPKGLNPTKAIGHIKSMLINRSV | not soluble
